Results on three substances are retold here after patent US20230312713A1.

For test [1], the target named is human CD5 on human ACH2 immortalized T cells (human) (UniProt P06127). The test can be described thus: cell-based or functional assay.
Test [2] addresses mouse CD5 on murine T cells (mouse) (UniProt P13379). Kind of test: cell-based or functional assay.
Sequence of UniProt P13379 (P13379 24-494 limits assumed): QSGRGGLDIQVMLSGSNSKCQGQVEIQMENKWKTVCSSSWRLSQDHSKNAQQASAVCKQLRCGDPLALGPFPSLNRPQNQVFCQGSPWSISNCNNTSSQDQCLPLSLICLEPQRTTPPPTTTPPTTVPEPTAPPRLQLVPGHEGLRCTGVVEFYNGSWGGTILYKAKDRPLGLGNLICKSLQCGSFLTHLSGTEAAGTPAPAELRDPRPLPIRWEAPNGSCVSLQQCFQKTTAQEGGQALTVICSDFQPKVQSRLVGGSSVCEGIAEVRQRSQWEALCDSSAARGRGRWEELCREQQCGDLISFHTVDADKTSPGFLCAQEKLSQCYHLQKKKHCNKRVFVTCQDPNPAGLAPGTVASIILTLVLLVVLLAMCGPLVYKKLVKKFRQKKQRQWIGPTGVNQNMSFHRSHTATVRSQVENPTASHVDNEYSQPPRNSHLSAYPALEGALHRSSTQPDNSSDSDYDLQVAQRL

Sequence of UniProt P06127 (P06127 25-495 limits assumed): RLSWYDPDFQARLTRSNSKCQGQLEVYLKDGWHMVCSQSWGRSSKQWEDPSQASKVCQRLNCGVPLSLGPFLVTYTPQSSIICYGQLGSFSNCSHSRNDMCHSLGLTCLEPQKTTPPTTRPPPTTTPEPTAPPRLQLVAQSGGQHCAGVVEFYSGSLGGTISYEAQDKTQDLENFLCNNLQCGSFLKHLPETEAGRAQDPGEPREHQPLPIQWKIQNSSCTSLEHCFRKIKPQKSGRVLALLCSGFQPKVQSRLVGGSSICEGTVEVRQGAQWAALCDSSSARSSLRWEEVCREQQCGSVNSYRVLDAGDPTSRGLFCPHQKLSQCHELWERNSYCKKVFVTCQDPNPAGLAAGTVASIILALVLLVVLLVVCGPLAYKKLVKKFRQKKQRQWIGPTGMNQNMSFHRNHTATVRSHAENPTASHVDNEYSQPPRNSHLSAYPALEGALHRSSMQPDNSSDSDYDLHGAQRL

As to “mouse anti-human CD5, clone UCHT2 (BioLegend), conjugated to LNP-mRNA (antibody)”, the percent gene transfer (GFP) in human ACH2 T cells with CD5/LNP-GFP in vitro in test [1] is 89 to 93%.
“purified rat anti-mouse CD5, clone 53-7.3 (BioLegend), conjugated to LNP-mRNA (antibody)”: in test [2], the ZsGreen expression in CD4+ splenocytes of Ai6 mice 24 h after 30 ug CD5/LNP-Cre turned out to be 81.1%, the ZsGreen expression in CD8+ splenocytes of Ai6 mice 24 h after 30 ug CD5/LNP-Cre was 75.6%, the percent FAPCAR T cells in spleen 48 h after CD5/LNP-FAPCAR injection is 17.5 to 24.7% and the percent of murine T cells expressing FAPCAR after 48 h in vitro with CD5/LNP-FAPCAR (flow cytometry) came to 83%. In addition, the percent of murine T cells expressing GFP after 48 h in vitro with CD5/LNP-GFP (flow cytometry) in test [2] was 78%.
In the case of “control isotype matched IgG conjugated to LNP-mRNA (antibody)”, the percent of murine T cells receiving mRNA in vitro from IgG/LNP (flow cytometry) in test [2] stood at 7%.
